{"source": "patent US5750365", "about": "“Isolated nucleic acid encoding a newt acidic fibroblast growth factor (AFGF)” (The Ohio State University Research Foundation, dated 1998)", "binders": {"B1": {"name": "newt KGFR (KGFR isoform, IIIb, of newt FGFR2; two Ig-like loop variant), expressed on CHO-K1 cells (KPTr2-2) (receptor)", "chain": "RPSYNIAEDTTLEPEDANSSGDDEDDNDGSEDFTNDNNHMRAPYWTNTEKLEKKLHAVPAANTVKFRCPAGGNPTPSMRWLKNGKEFKQEHRIGGFKVRSQHFSLIMESVVPSDEGNYTCIMENEYGSINHTYHLDVVERSPHRPILQAGLPANTTTKVGGDAEFVCKVYSDAQPHIQWIRHFELNGSKIGPDGHPYLKVLKRSGINSSNAEVLTLHNVTEADRGQYTCKVSNYIGEANQSAWLTVLPASEKDEERELDSSSEYTEIAIYCVGGFLITCMIGTIMVCHMKGRGKKSDFSSPPAVHKLSKSLPLRRQVTVSADSSSSMNSNTPLVRITTRLSSNNDTHLLAGVSEYELPEDPKWEYPREKLTLGKPLGEGCFGQVVMAEAVGIDKDRPKDAATVAVKMLKDDATEKDLSDLVSEMEMMKMIGKHKNIINLLGACTQDGPLYVIVEYASKGNLREYLRTRRPPGMEYSFDINRIPEEQMTFKDLVSCTYQLARGMEYLASQKCIHRDLAARNVLVTETNVMKIADFGLARDINNIDYYKKTTNGRLPVKWMAPEALFDRVYTHQSDVWSFGVLMWEIFTLGGSPYPGIPVEELFKLLKEGHRMDKPGNCTNELYTMMTDCWRAVPSQRPTFKQLVEDLDRILTQTTNEEYLDLNNPLEQYSPSYPDTRSSCSSGDDSVFSPDAMPYDPCLPKSQHTNGTIKT"}}, "key": {"bovine brain aFGF": {"biological_target": "bovine brain aFGF (bovine, UniProt P03968, 125I-labeled)", "experiment": "chemical crosslinking (DSS) on CHO-K1 cells over-expressing newt KGFR, SDS-PAGE", "experimental": "(§1) CHO cells transfected with pBJ5 vector (lane 1) or with newt KGFR expression vector (lanes 2–4) were crosslinked with ^125I-aFGF using 0.3 mM disuccinimidyl suberate (DSS). Excess amounts (500-fold) of aFGF (lane 3) or KGF (lane 4) were used to compete with ^125I-aFGF. Crosslinked products were analyzed on a 7.5% SDS-polyacrylamide gel.\n(§2) To characterize the newt FGFR cDNA functionally, the newt KGFR were expressed in CHO-K1 cells. The mammalian expression vector, pBJ5, which contains a chimeric promoter derived from HTLV-I and SV40, was used to express the newt KGFR and FGFR2 cDNA. […] The crosslinked product can be successfully competed off with a 500-fold molar excess of cold aFGF or human recombinant KGF as shown in FIG. 11. The crosslinked product is absent in KPTr1-8, the CHO cells that were transfected with the pBJ5 vector alone. The crosslinked product thus appears to be specific. Similarly, a cell line over-expressing the human KGFR (T-1063-29-2 from S. A. Aaronson, NIH) was able to produce a somewhat smaller crosslinked product than the newt KGFR. Antibodies (both monoclonal and polyclonal) directed against a peptide from the carboxyl terminus of the newt FGFR2 are generated."}, "recombinant human aFGF": {"biological_target": "recombinant human aFGF (human, UniProt P05230, 125I-labeled)", "experiment": "Scatchard plot of 125I-aFGF binding to KPTr2-2 cells (CHO-K1 expressing newt KGFR)"}, "human recombinant KGF": {"biological_target": "T1, human recombinant KGF (human, UniProt P21781)", "T1 sequence": "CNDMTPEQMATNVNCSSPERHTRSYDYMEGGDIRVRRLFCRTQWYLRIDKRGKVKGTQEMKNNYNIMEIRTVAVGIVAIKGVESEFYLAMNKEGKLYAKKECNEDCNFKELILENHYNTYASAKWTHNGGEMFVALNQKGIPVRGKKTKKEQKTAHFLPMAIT", "experiment": "competition of 125I-aFGF crosslinking on KPTr2-2 cells; competitor in 500-fold molar excess", "experimental": "as §1, §2"}}, "data": [{"binder": "B1", "values": [{"measurement": "binding result", "setting": "bovine brain aFGF", "result": "binds"}, {"measurement": "Kd", "setting": "recombinant human aFGF", "result": 1.3, "unit": "nM"}, {"measurement": "binding result", "setting": "human recombinant KGF", "result": "binds"}]}]}
